# Test results from US11813311B2, “Treatment and prevention of metabolic diseases” (Singapore Health Services PTE LTD., priority 2019, dated 2023).
# Entries after “also recorded” stand apart in the source; their conditions may differ.
# Experiments:
# [1] = tested on: primary human hepatocytes; assay: Palmitate loading (lipotoxicity) of primary human hepatocytes; type: cell-based; settings: palmitate:BSA 6:1
# Method: Palmitate:BSA conjugated solution in the ratio of 6:1 was prepared as described earlier (Alsabeeh et al., 2018). Palmitate (0.5 mM) conjugated in fatty acids free BSA was used to treated cells as described in figure legends; 0.5% BSA solution was used as control. […]
# Primary human hepatocytes were seeded on 8-well chamber slides (1×10^4 cells/well). For this experiment, cells were not serum-starved prior to palmitate treatment. 24 hours following palmitate stimulation, cells were washed, incubated with 25 μM of DCFDA solution (ab113851, Abcam) for 45 minutes at 37° C. in the dark, and rinsed with dilution buffer according to the manufacturer's protocol. Live cells with positive DCF staining were imaged with filter set appropriate for fluorescein (FITC) using a fluorescence microscope (Leica). […]
# (§1) Western blots were carried out on total protein extracts from hepatocytes and liver tissues. Hepatocyte and liver tissue lysates were homogenized in RIPA Lysis and Extraction Buffer (89901, Thermo Scientific) containing protease and phosphatase inhibitors (Roche). Protein lysates were separated by SDS-PAGE and transferred to PVDF membranes. Protein bands were visualized using the ECL detection system (Pierce) with the appropriate secondary antibodies: anti-rabbit HRP or anti-mouse HRP.
# HSCs = assay: IL-11 expression and secretion by HSCs (RNA-seq, ELISA); type: cell-based, human; settings: for IL-11 secretion from HSCs: ELISA
# Source text: TGFβ1 stimulation of human hepatic stellate cells and antibody treatment in HFMCD: Sequenced libraries were demultiplexed using bcl2fastq v2.19.0.316 with the-no-lane-splitting option. Adapter sequences were then trimmed using trimmomatic^6 v0.36 in paired end mode with the options MAXINFO:35:0.5 MINLEN:35. Trimmed reads were aligned to the Homo sapiens GRCh38 using STAR′ v. 2.2.1 with the options—outFilterType BySJout-outFilterMultimapNmax 20-alignSJoverhangMin 8-alignSJDBoverhangMin 1-outFilterMismatchNmax 999-alignIntronMin 20-alignIntronMax 1000000-alignMatesGapMax 1000000 in paired end, single pass mode. Only unique alignments were retained for counting. Counts were calculated at the gene level using the FeatureCounts module from subread^8v. 1.5.1, with the options -O-s 2-J-T 8-p-R-G. The Ensembl release 86 hg38 GTF was used as annotation to prepare STAR indexes and for FeatureCounts.
# The levels of IL-11 and MMP-2 in equal volumes of cell culture media were quantified using Human IL-11 Quantikine ELISA kit (D1100, R&D Systems) and Total MMP-2 Quantikine ELISA kit (MMP200, R&D Systems), respectively. Total secreted collagen in the cell culture supernatant was quantified using Sirius red collagen detection kit (9062, Chondrex). Total hydroxyproline content in the livers was measured using Quickzyme Total Collagen assay kit (Quickzyme Biosciences). Mouse serum levels of alanine aminotransferease (ALT), cholesterol, and triglycerides were measured using Alanine Transaminase Activity Assay Kit (ab105134, abcam), Cholesterol Assay Kit (ab65390, abcam), and Triglyceride Assay Kit (ab65336, abcam), respectively. Liver Triglycerides (TG) measurements were performed using triglyceride colorimetric assay kit (Ser. No. 10/010,303, Cayman). All ELISA and colorimetric assays were performed according to the manufacturer's protocol.
# [2] = tested on: primary human hepatocytes; assay: Stimulation of primary human hepatocytes with IL11, hyperIL11, hyperIL6; type: cell-based; settings: for ERK and JNK (non-canonical signaling) activation: 2.5 ng/ml to 20 ng/ml
# Method: Human hepatocytes (5200, ScienCell) were grown and maintained in hepatocyte media (5201, ScienCell) supplemented with 2% fetal bovine serum (FBS) and 1% Penicillin-streptomycin.
# Primary human hepatocytes (5200, ScienCell) were maintained in hepatocyte medium ([…], ScienCell) supplemented with 2% fetal bovine serum, 1% Penicillin-streptomycin at 37° C. and 5% CO2. Hepatocytes (P2-P3) were serum-starved overnight unless otherwise specified in the methods prior to 24 hours stimulation with different doses of various recombinant proteins as described.
# For surface IL11RA, IL6R, and gp130 analysis, primary human hepatocytes and THP-1 cells were stained with IL11RA, IL6R, or gp130 antibody and the corresponding Alexa Fluor 488 secondary antibody. Cell death analysis was performed by staining primary human hepatocytes with Dead Cell Apoptosis Kit with Annexin V FITC and PI (V13242, Thermo Fisher). PI+ve cells were then quantified with the flow cytometer (Fortessa, BD Biosciences) and analyzed with FlowJo version X software (TreeStar).
# Alanine Aminotransferase (ALT) activity in the cell culture supernatant and mouse serum was measured using ALT Activity Assay Kit (ab105134, Abcam). Liver Glutathione (GSH) levels were measured using Glutathione Colorimetric Detection Kit (EIAGSHC, Thermo Fisher). Total hydroxyproline content in mouse livers was measured using Quickzyme Total Collagen assay kit (QZBtotco15, Quickzyme Biosciences). The levels of serum and liver triglycerides were measured using Triglyceride Assay Kit (ab65336, Abcam). Mouse serum levels of Aspartate Aminotransferase (AST) and cholesterol were measured using AST Assay Kit (ab105135, Abcam) and Cholesterol Assay Kit (ab65390; Abcam), respectively. All colorimetric assays were performed according to the manufacturer's protocol.
# as §1
# [3] = tested on: wild-type C57BL/6J and Col1a1-GFP reporter mice; assay: Daily subcutaneous injection of recombinant mouse IL-11; type: in vivo
# Method: Recombinant mouse IL-11 (rmIL11) was reconstituted to a concentration of 50 μg ml^−1 in saline. Ten-week-old male wild-type C57BL/6J mice received daily subcutaneous injection of either 100 μg kg^−1 of rmIL11 in saline (n=19) or an identical volume of saline (n=15) for 21 days.
# Ten week old male Col1a1-GFP reporter mice 19 and wild-type C57BL/6J mice received daily subcutaneous injection of either 100 μg/kg of recombinant mouse Il-11 (rmIl-11) or identical volume of saline for 21 days.
molecule,measurement,setting,value
"CCCCCCCCCCCCCCCC(=O)O [palmitate, Palmitate, reference compound]","IL11 secretion, FC vs control",[1],28
"CCL2: human CCL2 recombinant protein, NASH stimulus",IL-11 secretion from HSCs,HSCs,induce IL-11 secretion
PDGF,IL-11 secretion from HSCs,HSCs,induce IL-11 secretion
"TGFβ1: human TGFβ1 recombinant protein, pro-fibrotic stimulus [reference compound]",IL-11 secretion from hepatocytes,"[2]; TGFβ1 5 ng/ml, 24 h",robustly secreted IL-11
same,IL-11 upregulation in HSCs (RNA-seq),"HSCs; TGFβ1 5 ng/ml, 24 h",14.9 fold
"angiotensin II: human angiotensin (Sigma-Aldrich), NASH stimulus (DRVYIHPF; Angiotensin-2; UniProt P01019 25-32, looked up)",IL-11 secretion from HSCs,HSCs,induce IL-11 secretion
"bFGF: human bFGF recombinant protein, NASH stimulus",IL-11 secretion from HSCs,HSCs,induce IL-11 secretion
"hyperIL6: IL6R:IL6 fusion protein, synthetic IL6 trans-signaling construct (R&D systems) [reference compound]",ERK and JNK (non-canonical signaling) activation,[2]; 24 h,did not activate
same,"ALT in the media, fold change (FC)",[2]; 20 ng/ml,0.9
same,STAT3 activation,"[2]; dose range, 24 h",dose-dependently induced STAT3 activation
"sIL11RA: soluble IL11RA, human IL11RA (R&D systems), to potentiate putative trans-signaling (protein, UniProt Q14626 24-370, looked up, extracellular domain) extracellular domain: SPCPQAWGPPGVQYGQPGRSVKLCCPGVTAGDPVSWFRDGEPKLLQGPDSGLGHELVLAQADSTDEGTYICQTLDGALGGTVTLQLGYPPARPVVSCQAADYENFSCTWSPSQISGLPTRYLTSYRKKTVLGADSQRRSPSTGPWPCPQDPLGAARCVVHGAEFWSQYRINVTEVNPLGASTRLLDVSLQSILRPDPPQGLRVESVPGYPRRLRASWTYPASWPCQPHFLLKFRLQYRPAQHPAWSTVEPAGLEEVITDAVAGLPHAVRVSARDFLDAGTWSTWSPEAWGTPSTGTIPKEIPAWGQLHTQPEVEPQVDSPAPPRPSLQPHPRLLDHRDSVEQVAVLA",IL11-induced hepatocyte death and signaling,"[2]; IL11 20 ng/ml, sgp130 or sIL11RA 1 μg/ml",unaffected
same,ALT release from IL11-stimulated hepatocytes,[2]; increasing doses of sgp130 or sIL11RA,no effect
same,IL11 dose-dependent hepatocyte cell death on addition of decoy,[2]; sgp130 or sIL11RA 1 μg/ml,unaffected
rmIL11: Recombinant mouse IL-11 (UniProtKB: P47873) (protein) PGPPAGSPRVSSDPRADLDSAVLLTRSLLADTRQLAAQMRDKFPADGDHSLDSLPTLAMSAGTLGSLQLPGVLTRLRVDLMSYLRHVQWLRRAGGPSLKTLEPELGALQARLERLLRRLQLLMSRLALPQAAPDQPVIPLGPPASAWGSIRAAHAILGGLHLTLDWAVRGLLLLKTRL,expression of key pro-fibrotic and pro-inflammatory genes,"[3]; 100 μg/kg daily s.c., 21 days",increased
same,hepatic collagen content,"[3]; 100 μg/kg daily s.c., 21 days",increased
same,serum alanine aminotransferase (ALT),"[3]; 100 μg/kg daily s.c., 21 days",increased
same,weight gain,"[3]; 100 μg/kg daily s.c., 21 days, vs saline",slowed normal mouse weight gain progression; also recorded: gained less weight
same,Col1a1+ve myofibroblasts in the liver,[3]; Col1a1-GFP reporter mice,accumulated GFP-expressing Col1a1^+ve myofibroblasts in the liver
"hyperIL11: IL11RA:IL11 fusion protein mimicking the trans-signalling complex, SEQ ID NO:21 (protein, Hyper IL-11 (IL-11RAIL-11 fusion)) MSSSCSGLSRVLVAVATALVSASSPCPQAWGPPGVQYGQPGRSVKLCCPGVTAGDPVSWFRDGEPKLLQGPDSGLGHELVLAQADSTDEGTYICQTLDGALGGTVTLQLGYPPARPVVSCQAADYENFSCTWSPSQISGLPTRYLTSYRKKTVLGADSQRRSPSTGPWPCPQDPLGAARCVVHGAEFWSQYRINVTEVNPLGASTRLLDVSLQSILRPDPPQGLRVESVPGYPRRLRASWTYPASWPCQPHFLLKFRLQYRPAQHPAWSTVEPAGLEEVITDAVAGLPHAVRVSARDFLDAGTWSTWSPEAWGTPSTGPAGQSGGGGGSGGGSGGGSVPGPPPGPPRVSPDPRAELDSTVLLTRSLLADTRQLAAQLRDKFPADGDHNLDSLPTLAMSAGALGALQLPGVLTRLRADLLSYLRHVQWLRRAGGSSLKTLEPELGTLQARLDRLLRRLQLLMSRLALPQPPPDPPAPPLAPPSSAWGGIRAAHAILGGLHLTLDWAVRGLLLLKTRL",ERK and JNK (non-canonical signaling) activation,[2]; 24 h,activated ERK and JNK in a dose-dependent manner
same,alanine transaminase (ALT) in the media,"[2]; dose range, 24 h",dose-dependent increase
same,IL-11 secretion from HSCs,HSCs,secreted IL-11
